# Data as given in publication PMC6582535.
# Target: Cholecystokinin type B receptor (mouse (endogenous in DRG)) (UniProt P56481)
# Chain of UniProt P56481 (P56481 whole entry): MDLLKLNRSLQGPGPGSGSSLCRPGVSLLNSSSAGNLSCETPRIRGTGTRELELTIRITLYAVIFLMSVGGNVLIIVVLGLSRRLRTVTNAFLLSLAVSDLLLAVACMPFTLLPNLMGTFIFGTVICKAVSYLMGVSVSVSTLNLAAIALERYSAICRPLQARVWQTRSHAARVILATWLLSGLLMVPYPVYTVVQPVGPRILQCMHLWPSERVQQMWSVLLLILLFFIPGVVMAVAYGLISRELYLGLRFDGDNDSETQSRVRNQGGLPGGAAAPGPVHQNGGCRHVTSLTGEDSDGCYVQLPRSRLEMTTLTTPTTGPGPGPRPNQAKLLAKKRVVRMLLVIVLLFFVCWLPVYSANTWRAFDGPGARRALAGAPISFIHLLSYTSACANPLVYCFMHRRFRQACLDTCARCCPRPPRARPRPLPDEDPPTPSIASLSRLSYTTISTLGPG
substance,measurement,value
CCK-4 (peptide),percent decrease of A-type K+ current (IA) in small-sized mouse DRG neurons at 300 nM CCK-4,32.2%
